From article PMC10052518 come the findings set out here.

Test [1] concerns the target hFcRn (human neonatal Fc receptor) (human) (UniProt P55899). Put plainly: SPR; Bia3000; hFcRn immobilised on CM5 chip (<200 RU); increasing concentrations of antibody injected over 180 s, dissociation 400 s; 25 °C; 50 mM phosphate, 150 mM NaCl, 0.05% P20, pH 6; multi-cycle kinetics, bivalent model fit.
Test [2] has the same target. As to the kind of experiment: SPR; Bia3000; hFcRn immobilised on CM5 chip (<200 RU); increasing concentrations of antibody injected over 180 s, dissociation 400 s; 25 °C; 50 mM phosphate, 150 mM NaCl, 0.05% P20, pH 7; multi-cycle kinetics, bivalent model fit. In general terms: SPR reads the build-up and loss of mass on a sensor chip optically.
Test [3] shares this target. Put plainly: SPR; bivalent fit, kd1.
For test [4] the target is unchanged. Put plainly: SPR; bivalent fit, kd2 (second site).
The target is the same in test [5]. Put plainly: SPR; pH 7.0, bivalent fit, kd1.

pKd: −log10 of the molar value.

Sequence of UniProt P55899 (P55899 24-297, chain 1 of 2): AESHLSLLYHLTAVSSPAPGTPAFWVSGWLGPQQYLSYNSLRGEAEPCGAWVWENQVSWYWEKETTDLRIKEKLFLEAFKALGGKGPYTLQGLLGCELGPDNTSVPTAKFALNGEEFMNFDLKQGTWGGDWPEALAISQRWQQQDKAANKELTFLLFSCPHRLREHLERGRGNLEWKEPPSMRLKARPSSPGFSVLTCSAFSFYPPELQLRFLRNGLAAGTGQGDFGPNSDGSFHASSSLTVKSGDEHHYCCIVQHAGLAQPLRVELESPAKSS
Sequence of UniProt P55899 (P61769 21-119, chain 2 of 2, further chain): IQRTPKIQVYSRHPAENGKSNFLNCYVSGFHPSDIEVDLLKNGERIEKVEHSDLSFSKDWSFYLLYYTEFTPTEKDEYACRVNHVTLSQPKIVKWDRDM

Broadly, the pKd is −log10 of the Kd, conventionally taken in molar units. Lower therefore signals a high Kd. Consider “B5 (tocilizumab variant T256Y/H285Q/N286D/V308A/N434Y) (antibody)”, for which the values for the pKd in test [1] and in test [2] were 7.35 and 6.21, respectively.

With “C7 (tocilizumab variant T256E/N286H/K288E/V308P/L309D/N434Y/Y436K) (antibody)”, the pKd is 7.47 in test [1] and 6.80 in test [2].

As a reminder, the koff is a measure of how fast the partners let go of each other. Read a low koff as a long-lived complex. Regarding “B5 (tocilizumab variant T256Y/H285Q/N286D/V308A/N434Y)”, the koff in test [3] is 0.0439 s⁻¹; in test [4], 0.000765 s⁻¹.

Consider “T8 (tocilizumab variant M252Y/N286E/T307Q/V308P/Q311A/N434Y/Y436V) (antibody)”, for which the results for the pKd in test [1] and in test [2] were 8.89 and 8.11, respectively.

Regarding “T3 (tocilizumab variant M252Y/T307D/N434Y) (antibody)”, the negative-log Kd (pKd) in test [1] is 7.89; in test [2], 6.42.

In test [5], “T3 (tocilizumab variant M252Y/T307D/N434Y)” registered a koff of 0.0263 s⁻¹.

In the case of “T8 (tocilizumab variant M252Y/N286E/T307Q/V308P/Q311A/N434Y/Y436V)”, the results for the dissociation rate constant (koff) in test [3] and in test [4] were 0.000658 s⁻¹ and 0.0383 s⁻¹, respectively.

For “A3 (tocilizumab variant M252W/M428K/N434W) (antibody)”, the pKd in test [2] is 6.24.

The substance Tocilizumab (antibody) had a pKd in test [1] of 6.42.

Take “C7 (tocilizumab variant T256E/N286H/K288E/V308P/L309D/N434Y/Y436K)”: the values for the koff in test [3] and in test [4] were 0.0053 s⁻¹ and 6.52e-05 s⁻¹, respectively.
